The target in the assay is T1, ScVan1 (Saccharomyces cerevisiae Van1p glycosyltransferase domain, residues 87-535) (S. cerevisiae, UniProt P23642 87-535).
T1 construct: Van1p, S. cerevisiae S288c, lacking the first 86 amino acid residues (cytoplasmic domain, transmembrane domain and predicted disordered region); glycosyltransferase domain 87-535; Cloned into pNIFTY/MBP (MBP, hexahistidine, TEV site at the N-terminus); the tag was cleaved off with TEV protease; also called ScVan1p; V1; source: E. coli BL21(DE3) pLysS, purified (Ni-IMAC, TEV cleavage, anion …)
T1 sequence (looked up): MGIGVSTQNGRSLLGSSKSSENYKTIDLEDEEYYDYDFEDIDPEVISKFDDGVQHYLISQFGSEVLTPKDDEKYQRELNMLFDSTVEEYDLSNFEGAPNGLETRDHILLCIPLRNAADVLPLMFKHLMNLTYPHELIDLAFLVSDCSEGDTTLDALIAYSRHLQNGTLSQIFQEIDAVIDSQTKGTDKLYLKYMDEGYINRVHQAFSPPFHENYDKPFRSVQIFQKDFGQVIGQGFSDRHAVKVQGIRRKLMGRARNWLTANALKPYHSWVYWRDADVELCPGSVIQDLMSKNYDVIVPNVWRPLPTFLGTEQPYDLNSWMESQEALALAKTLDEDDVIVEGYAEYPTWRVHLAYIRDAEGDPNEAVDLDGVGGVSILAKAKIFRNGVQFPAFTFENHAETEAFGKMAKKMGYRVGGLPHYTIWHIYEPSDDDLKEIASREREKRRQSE
Description: BLI; Octet RED384; biotinylated ScMnn9 bound at 25 µg/ml to streptavidin sensors; ScVan1 at 0 to 15 µM in buffer C (100 mM HEPES pH 7.5, 5 mM MnCl2, 1 mg/ml BSA, 0.015% BRIJ 35); association 10 min, dissociation 20 min; triplicate, full kinetic fit. The note with it: both partners purified.

B1: ScMnn9 (Saccharomyces cerevisiae Mnn9p glycosyltransferase core, residues 93-395) (domain or fragment, S. cerevisiae, UniProt P39107 93-395, looked up)
chain: EGHIAHYDLNKLHSTSEAAVNKEHILILTPMQTFHQQYWDNLLQLNYPRELIELGFITPRTATGDLALKKLENAIKKVQTDKKTQRFSKITILRQNSQSFDKLMEKERHALDVQKERRAAMALARNELLFSTIGPHTSWVLWLDADIIETPPSLIQDMTKHNKAILAANIYQRFYDEEKKQPSIRPYDFNNWQESDTGLEIASQMGDDEIIVEGYAEIATYRPLMAHFYDANGVPGEEMALDGVGGGCTLVKAEVHRDGAMFPNFPFYHLIETEGFAKMAKRLNYDVFGLPNYLVYHIEEENH
modifications: biotinylated with EZ-link NHS-PEG4-Biotin
notes: Mnn9p, S. cerevisiae S288c, lacking the first 92 amino acid residues (cytoplasmic domain, transmembrane domain and predicted disordered region); glycosyltransferase core 93-395; Cloned into pNIFTY/MBP (MBP, hexahistidine, TEV site at the N-terminus); PDB 3ZF8 holds the D236N mutant of the same limits; also called ScMnn9p; M9; source: E. coli BL21(DE3) pLysS, purified (Ni-IMAC, TEV cleavage, anion …)
As to B1, the Kd came out at 480 nM, the off-rate constant (koff) was determined as 0.00032 s⁻¹ and the association rate constant (kon) worked out at 620 M⁻¹ s⁻¹.

Usually Kd stands for the constant that tells how readily two partners part at equilibrium. High values mean a looser complex, low ones a tighter complex. A word on the koff: it is the rate constant with which the complex falls apart. Read a low koff as slow dissociation. As usually defined, the kon is the rate constant with which the complex forms. A higher kon goes with faster complex formation.
